We go through one substance from patent US20050053613A1.

The target of this experiment is CD8 on peripheral blood T cells (UniProt P01732). The experiment in a line: cell-based or functional assay.

“gp180, mAb B9 affinity-purified material from T84 cells (from UniProt P06731 35-685)” showed a killing in a CTL assay testing alloreactive CTL of under 15%.
